Laboratory results taken from patent US20190134153A1, “IMMUNOMODULATORY EFFECT OF INHALED KINASE INHIBITOR PEPTIDES IN LUNG” (MOERAE MATRIX, INC., priority 2017, published 2019).

Columns and labels:
Assay in all cases: Kinase Profiling Assay
Type in all cases: biochemical
Settings in all cases: 100 μM
[1] = molecular target: T1, ASK1(h) (Homo sapiens, UniProt Q99683)
T1 sequence (Q99683 1-1374): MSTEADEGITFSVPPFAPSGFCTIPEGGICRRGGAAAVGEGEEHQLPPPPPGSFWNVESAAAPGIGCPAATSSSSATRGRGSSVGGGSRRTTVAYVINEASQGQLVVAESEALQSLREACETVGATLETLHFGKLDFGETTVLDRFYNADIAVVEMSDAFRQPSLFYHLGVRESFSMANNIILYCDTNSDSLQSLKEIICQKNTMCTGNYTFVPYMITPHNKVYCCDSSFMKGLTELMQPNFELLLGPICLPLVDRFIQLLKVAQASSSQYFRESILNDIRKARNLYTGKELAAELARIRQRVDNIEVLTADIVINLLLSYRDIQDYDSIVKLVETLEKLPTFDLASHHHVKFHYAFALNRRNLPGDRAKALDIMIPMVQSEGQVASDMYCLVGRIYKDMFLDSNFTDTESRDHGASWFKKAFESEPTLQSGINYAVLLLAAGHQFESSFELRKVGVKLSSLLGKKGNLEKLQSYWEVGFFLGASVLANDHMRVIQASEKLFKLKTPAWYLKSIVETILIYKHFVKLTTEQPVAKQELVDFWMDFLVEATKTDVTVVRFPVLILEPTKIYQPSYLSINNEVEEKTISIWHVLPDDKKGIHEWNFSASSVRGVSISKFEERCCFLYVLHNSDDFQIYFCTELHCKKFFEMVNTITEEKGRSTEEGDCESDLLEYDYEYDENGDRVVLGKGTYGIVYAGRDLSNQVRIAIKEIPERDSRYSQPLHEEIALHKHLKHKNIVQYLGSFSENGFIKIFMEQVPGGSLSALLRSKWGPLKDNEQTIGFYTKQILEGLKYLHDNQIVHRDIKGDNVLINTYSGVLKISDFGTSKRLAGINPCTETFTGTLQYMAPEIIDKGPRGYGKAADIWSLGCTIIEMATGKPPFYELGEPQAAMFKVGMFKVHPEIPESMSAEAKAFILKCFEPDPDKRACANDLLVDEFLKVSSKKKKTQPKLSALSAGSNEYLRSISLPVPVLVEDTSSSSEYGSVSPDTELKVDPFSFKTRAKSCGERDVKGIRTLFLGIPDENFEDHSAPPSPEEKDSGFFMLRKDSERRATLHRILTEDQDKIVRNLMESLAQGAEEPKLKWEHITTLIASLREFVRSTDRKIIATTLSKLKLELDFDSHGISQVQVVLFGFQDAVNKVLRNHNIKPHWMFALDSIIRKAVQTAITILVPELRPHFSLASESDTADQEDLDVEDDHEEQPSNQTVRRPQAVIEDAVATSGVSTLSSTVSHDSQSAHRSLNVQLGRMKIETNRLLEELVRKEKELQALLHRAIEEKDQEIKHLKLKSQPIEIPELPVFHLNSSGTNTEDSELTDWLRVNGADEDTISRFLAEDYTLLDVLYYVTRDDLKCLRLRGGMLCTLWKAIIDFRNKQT

[2] = molecular target: T2, MuSK(h) (Homo sapiens, UniProt O15146)
T2 sequence (O15146 24-869): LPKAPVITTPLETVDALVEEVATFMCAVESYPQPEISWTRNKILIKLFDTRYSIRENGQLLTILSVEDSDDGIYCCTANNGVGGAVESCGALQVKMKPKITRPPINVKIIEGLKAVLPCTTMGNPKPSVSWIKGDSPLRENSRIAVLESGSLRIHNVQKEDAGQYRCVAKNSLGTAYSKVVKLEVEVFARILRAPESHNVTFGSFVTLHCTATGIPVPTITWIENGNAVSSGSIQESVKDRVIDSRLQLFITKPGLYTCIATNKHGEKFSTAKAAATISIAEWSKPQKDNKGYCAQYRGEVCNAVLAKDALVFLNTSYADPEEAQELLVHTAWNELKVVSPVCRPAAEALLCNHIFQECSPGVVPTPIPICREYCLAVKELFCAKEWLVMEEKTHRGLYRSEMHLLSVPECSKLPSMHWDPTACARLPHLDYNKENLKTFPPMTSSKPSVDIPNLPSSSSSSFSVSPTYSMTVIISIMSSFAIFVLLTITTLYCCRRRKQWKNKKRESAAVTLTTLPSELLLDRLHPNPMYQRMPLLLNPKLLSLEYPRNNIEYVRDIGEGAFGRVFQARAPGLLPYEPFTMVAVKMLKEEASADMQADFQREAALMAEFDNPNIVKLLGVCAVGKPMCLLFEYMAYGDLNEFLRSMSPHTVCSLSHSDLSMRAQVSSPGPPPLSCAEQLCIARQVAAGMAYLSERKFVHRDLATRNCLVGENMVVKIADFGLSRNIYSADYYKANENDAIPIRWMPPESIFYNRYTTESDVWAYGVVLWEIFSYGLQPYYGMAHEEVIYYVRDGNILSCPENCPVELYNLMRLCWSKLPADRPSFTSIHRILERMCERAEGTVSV

[3] = molecular target: PDGFRα(V561D)(h) (Homo sapiens, UniProt P16234, V561D)
[4] = molecular target: Ron(h) (Homo sapiens, UniProt Q04912)
[5] = molecular target: T3, TBK1(h) (Homo sapiens, UniProt Q9UHD2)
T3 sequence (Q9UHD2 1-729): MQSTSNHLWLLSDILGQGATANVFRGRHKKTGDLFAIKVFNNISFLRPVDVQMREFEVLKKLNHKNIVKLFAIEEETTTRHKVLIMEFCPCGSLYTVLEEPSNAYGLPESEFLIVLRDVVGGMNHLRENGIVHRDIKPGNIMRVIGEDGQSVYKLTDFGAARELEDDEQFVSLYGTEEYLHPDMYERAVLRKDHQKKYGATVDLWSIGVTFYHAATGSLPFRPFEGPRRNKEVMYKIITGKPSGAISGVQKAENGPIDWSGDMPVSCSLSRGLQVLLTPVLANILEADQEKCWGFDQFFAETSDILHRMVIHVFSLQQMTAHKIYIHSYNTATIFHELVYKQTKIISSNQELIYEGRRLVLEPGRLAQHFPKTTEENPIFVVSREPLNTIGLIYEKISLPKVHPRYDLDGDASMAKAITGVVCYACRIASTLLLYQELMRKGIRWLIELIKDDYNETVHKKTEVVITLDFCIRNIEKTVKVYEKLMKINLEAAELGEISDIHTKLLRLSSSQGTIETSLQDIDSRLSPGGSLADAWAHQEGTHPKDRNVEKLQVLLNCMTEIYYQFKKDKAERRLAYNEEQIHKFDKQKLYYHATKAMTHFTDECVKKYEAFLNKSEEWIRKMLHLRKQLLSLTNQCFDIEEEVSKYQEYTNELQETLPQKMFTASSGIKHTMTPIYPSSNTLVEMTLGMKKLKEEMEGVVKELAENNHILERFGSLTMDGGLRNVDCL

Sequence of PDGFRα(V561D)(h) (P16234 24-1089 V561D): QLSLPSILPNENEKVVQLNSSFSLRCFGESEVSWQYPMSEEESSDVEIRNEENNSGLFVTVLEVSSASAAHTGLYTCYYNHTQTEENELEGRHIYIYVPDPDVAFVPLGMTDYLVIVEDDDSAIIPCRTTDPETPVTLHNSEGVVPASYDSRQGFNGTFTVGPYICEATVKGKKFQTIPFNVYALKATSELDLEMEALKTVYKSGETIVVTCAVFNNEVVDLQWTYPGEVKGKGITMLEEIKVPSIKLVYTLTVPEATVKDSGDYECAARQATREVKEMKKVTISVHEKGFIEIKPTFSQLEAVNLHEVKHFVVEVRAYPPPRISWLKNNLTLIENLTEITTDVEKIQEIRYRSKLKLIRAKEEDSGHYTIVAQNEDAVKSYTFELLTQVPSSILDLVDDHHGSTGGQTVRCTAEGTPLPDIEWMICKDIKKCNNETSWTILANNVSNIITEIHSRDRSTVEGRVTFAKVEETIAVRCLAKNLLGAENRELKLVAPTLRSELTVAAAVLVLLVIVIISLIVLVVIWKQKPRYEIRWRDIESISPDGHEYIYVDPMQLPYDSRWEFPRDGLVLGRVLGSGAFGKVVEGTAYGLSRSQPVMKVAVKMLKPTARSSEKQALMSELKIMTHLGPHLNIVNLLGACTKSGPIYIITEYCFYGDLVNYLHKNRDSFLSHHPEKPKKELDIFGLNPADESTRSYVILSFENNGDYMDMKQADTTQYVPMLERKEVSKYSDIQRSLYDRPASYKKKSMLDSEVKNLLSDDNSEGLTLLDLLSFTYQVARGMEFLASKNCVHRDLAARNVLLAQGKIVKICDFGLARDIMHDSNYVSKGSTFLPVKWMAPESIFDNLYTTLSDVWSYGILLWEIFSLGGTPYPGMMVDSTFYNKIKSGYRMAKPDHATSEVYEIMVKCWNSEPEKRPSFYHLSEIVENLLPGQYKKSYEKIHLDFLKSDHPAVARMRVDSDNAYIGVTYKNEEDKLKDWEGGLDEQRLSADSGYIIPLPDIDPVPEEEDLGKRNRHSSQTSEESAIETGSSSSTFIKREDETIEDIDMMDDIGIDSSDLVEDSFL

Q: HRRIKAWLKKIKALARQLGVAA [MMI-0500] was tested. Which “% activity” value [1] did it give?
A: −4%

Q: What about the “% activity” value [2] of the same sequence?
A: 27%

Q: And the “% activity” value [3]?
A: 146%

Q: What about the “% activity” value [4] of the same sequence?
A: 46%

Q: What about the “% activity” value [5] of the same sequence?
A: 16%

Q: Which results are given for YARAAARQARAKALNRQLGVA [MMI-0200]?
A: % activity [1]: 101%; % activity [4]: 120%; % activity [5]: 98%

Q: KAFAKLAARLYRKALARQLGVAA [MMI-0400] was tested. Which “% activity” value [1] did it give?
A: 69%

Q: What about the “% activity” value [2] of the same sequence?
A: 93%

Q: And the “% activity” value [3]?
A: 100%

Q: What about the “% activity” value [4] of the same sequence?
A: 79%

Q: And the “% activity” value [5]?
A: 39%

Q: For FAKLAARLYRKALARQLGVAA [MMI-0300], which “% activity” value [1] is on record?
A: 80%

Q: What about the “% activity” value [2] of the same sequence?
A: 93%

Q: And the “% activity” value [3]?
A: 82%

Q: And the “% activity” value [4]?
A: 93%

Q: And the “% activity” value [5]?
A: 37%
